Data: patent US20220175944A1 (MAGENTA THERAPEUTICS, published 2022)

B1: CK6 S239C-PBD (antibody, V domains shown)
VH: QVQLVQSGAAVKKPGESLKISCKGSGYRFTSYWIGWVRQMPGKGLEWMGIIYPGDSDTRYSPSFQGQVTISAGKSISTAYLQWSSLKASDTAMYYCARHGRGYNGYEGAFDIWGQGTMVTVSS
VL: AIQLTQSPSSLSASVGDRVTITCRASQGISSALAWYQQKPGKAPKLLIYDASSLESGVPSRFSGSGSGTDFTLTISSLQPEDFATYYCQQFNSYPLTFGGGTKVEIK
modifications: PBD (DNA cross linker) conjugated to the antibody, Fc modification S239C, DAR 1.7
B2: CK6 S239C-D4 (calicheamicin) (antibody, V domains shown)
VH: B1 VH
VL: B1 VL
modifications: calicheamicin (D4) conjugated to the antibody, Fc modification S239C, DAR 1.72
B3: CK6 S239C-DM (duocarmycin) (antibody, V domains shown)
VH: B1 VH
VL: B1 VL
modifications: duocarmycin (DM) conjugated to the antibody, Fc modification S239C, DAR 1.65
B4: CK6 S239C-PNU (antibody, V domains shown)
VH: B1 VH
VL: B1 VL
modifications: PNU (DNA topoisomerase I/II inhibitor) conjugated to the antibody, Fc modification S239C, DAR 1.4
B5: CK6-SET0207 (Fc modification D265C H435A) (antibody, V domains shown)
VH: B1 VH
VL: B1 VL
modifications: SET0207 payload ('Non-cleavable natural') conjugated to the antibody, Fc modification D265C H435A, DAR 2.0

These binders were tested against Baboon CD117 on baboon CD34+ bone marrow cells (baboon) (assay: cell-based or functional assay).

Binder	IC50, killing of baboon CD34+ bone marrow cells (live cell counts by flow cytometry) [nM]
B1	0.00066
B2	14.6

What follows are binders tested against T1, Human CD117 on Kasumi-1 cells or primary human CD34+ bone marrow cells (human, UniProt P10721 26-976) (assay: cell-based or functional assay).
T1 sequence (P10721 26-976 limits assumed): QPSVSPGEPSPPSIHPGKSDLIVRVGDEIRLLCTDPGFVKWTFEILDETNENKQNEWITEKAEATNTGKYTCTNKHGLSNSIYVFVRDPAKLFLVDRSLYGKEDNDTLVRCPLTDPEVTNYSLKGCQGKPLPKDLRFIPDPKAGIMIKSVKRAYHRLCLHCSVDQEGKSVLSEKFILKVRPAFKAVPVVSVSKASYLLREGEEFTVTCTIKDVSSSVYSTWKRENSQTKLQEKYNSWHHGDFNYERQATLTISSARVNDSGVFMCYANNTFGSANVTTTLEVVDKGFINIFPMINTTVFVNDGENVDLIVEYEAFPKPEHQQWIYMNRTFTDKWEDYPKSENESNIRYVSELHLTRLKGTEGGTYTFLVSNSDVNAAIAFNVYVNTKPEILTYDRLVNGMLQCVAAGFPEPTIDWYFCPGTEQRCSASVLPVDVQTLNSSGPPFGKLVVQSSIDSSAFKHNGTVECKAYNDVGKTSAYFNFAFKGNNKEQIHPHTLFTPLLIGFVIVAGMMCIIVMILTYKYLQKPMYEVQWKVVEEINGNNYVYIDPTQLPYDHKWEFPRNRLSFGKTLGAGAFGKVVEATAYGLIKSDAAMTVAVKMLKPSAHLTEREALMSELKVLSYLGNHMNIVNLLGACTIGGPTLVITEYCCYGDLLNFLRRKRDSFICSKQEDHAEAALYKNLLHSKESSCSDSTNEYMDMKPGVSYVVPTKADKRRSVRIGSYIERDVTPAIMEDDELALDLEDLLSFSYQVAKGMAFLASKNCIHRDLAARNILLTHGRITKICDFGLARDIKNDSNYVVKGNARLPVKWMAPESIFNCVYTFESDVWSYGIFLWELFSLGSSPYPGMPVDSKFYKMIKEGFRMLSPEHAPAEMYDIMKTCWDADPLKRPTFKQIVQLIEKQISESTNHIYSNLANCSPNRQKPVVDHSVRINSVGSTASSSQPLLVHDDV

Binder	% Efficacy, in vitro Kasumi cell killing assay [%]
B1	60.7
B3	0
B2	0
B4	85.7
B5	0

Biological target: T1, Human CD117 on Kasumi-1 cells or …
Assay: cell-based or functional assay
Remark: another data set of the same source

Binder	% Efficacy, in vitro hCD34 cell killing assay [%]
B1	97.3
B3	66.2
B2	52.3
B4	74.4
B5	9.18
